{"source": "patent EP2213302A2", "about": "(Genentech, Inc., dated 2010)", "target": "T1, DR4 ECD immunoadhesin (human, UniProt O00220 24-218)", "T1 construct": "also called DR4-IgG; DR4 ECD-IgG; not shown: CH1, hinge and Fc region of human immunoglobulin G1 heavy chain", "T1 sequence (O00220 other isoform, or with tags, fused parts or gaps)": "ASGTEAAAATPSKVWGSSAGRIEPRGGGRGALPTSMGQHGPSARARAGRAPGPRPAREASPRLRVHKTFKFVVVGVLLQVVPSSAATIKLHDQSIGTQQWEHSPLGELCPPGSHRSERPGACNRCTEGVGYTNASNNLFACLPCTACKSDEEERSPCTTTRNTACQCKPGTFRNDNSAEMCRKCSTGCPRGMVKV", "assay": "KinExA equilibrium, antibody in solution with DR4-IgG, DR4-IgG beads", "data": [{"binder": "4H6.17.8 anti-DR4 monoclonal antibody (murine) (antibody, V domains shown, Murine IgG1 from hybridoma ATCC HB-12455; only the variable domains apply here; the listing has Xaa at 20)) VH: QVQLKESGPGLVAPSQSLSITCTVSGFSLTSYGVHWVRQPPGKGLEWLGVIWAVGSTNYNSALMSRLSISKDNSKSQVFLKMNSLQTDDTAMYYCAREGEFDYYGSSLLSYHSMNFWGQGTSVTVS VL: DIQMTQTTSSLSASLGDRVTISCRASQDISNYLNWYQRKPDGTVKLLIYYTSRLHSGVPSRFSGSGSGTDYSLTISNLEQEDIATYFCQQGNTLPFTFGSATKLELT", "values": [{"measurement": "Kd", "result": 5, "unit": "pM"}]}]}
